{
  "source": "patent US20110136237",
  "key": {"[1]": {"test_system": "Cre recombinase (bacteriophage P1)", "test": "cell_activity", "settings": "positive control, S. pombe, day 7"}, "[2]": {"target": "T1, phiC31 integrase (Streptomyces bacteriophage phiC31) (UniProt Q9T221)", "T1 sequence": "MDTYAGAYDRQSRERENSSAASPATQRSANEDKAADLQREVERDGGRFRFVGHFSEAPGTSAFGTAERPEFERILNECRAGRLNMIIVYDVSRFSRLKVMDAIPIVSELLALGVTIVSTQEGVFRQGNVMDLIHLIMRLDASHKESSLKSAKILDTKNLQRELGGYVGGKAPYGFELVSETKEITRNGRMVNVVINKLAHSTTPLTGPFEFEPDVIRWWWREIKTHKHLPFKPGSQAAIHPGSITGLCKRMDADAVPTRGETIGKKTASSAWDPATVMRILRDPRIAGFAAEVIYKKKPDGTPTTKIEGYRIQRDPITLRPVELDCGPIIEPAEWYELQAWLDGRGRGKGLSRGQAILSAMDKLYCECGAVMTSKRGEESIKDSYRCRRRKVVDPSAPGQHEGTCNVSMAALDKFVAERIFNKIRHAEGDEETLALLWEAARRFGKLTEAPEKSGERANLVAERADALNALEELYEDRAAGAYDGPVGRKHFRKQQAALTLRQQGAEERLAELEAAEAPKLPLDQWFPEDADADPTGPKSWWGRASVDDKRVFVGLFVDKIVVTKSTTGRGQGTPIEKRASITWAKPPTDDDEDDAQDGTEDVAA", "test": "cell_activity", "settings": "attP x attB, S. pombe, day 7"}},
  "data": [
    {"substance": "lox", "values": [
      {"measurement": "activity", "setting": "[1]", "value": 100, "unit": "% excision"}
    ]},
    {"substance": "phiC31 attP x attB", "values": [
      {"measurement": "activity", "setting": "[2]", "value": 80, "unit": "% excision"}
    ]}
  ]
}
